Test results taken from PMC5322562, “Dynamic regulation of GDP binding to G proteins revealed by magnetic field-dependent NMR relaxation analyses” (Nature Communications, 2017).

Target: human Gαi3 (residues 1–354), GDP-bound form (human, UniProt P08754 1-354)
Test: cell-based or functional assay

Sequence of human Gαi3 (residues 1–354), GDP-bound form (P08754 whole entry, the tested form may be a part): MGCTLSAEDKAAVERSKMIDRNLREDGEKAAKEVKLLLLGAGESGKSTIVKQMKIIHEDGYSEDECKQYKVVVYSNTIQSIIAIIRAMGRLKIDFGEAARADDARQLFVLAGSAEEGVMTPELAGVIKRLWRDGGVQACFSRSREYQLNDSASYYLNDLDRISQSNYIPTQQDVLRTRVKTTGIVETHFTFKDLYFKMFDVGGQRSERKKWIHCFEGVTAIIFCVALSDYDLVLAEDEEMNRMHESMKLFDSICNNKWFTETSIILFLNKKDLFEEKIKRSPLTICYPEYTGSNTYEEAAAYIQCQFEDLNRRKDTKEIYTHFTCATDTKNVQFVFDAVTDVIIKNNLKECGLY

B1: GoLoco14 peptide (residues 496–531 of rat RGS14) (peptide)
chain: GPLGSDIEGLVELLNRVQSSGAHDQRGLLRKEDLVLPEFLQ
IC50 of the inhibition of 3H-GDP dissociation from Gα-GDP (bound 3H-GDP after a 10 min incubation with 100 nM to 10 μM GoLoco14; 30 °C): 620 nM
